Experimental findings from publication PMC3823824 are described below.

Test [1] addresses Bcl-2 (mouse; recombinant, and endogenous in mouse heart) (UniProt P10417). Kind of test: GST pull-down after kinase reaction. The note with it: sites T108.
Another test has as its target Bcl-xL (recombinant) (UniProt Q07817). The test can be described thus: GST pull-down after kinase reaction. The following applies: reference: GST-Beclin1-WT without Mst1; sites T108.

Regarding “Beclin1 (recombinant GST-Beclin1; adenoviral Beclin1 constructs) Beclin1-N2, 72-163 (from UniProt Q14457) GST-Beclin1-N2 treated with Mst1 and ATP”, the “binding against the reference” value in test [1] (reference: GST-Beclin1-N2 without Mst1) is “stronger”. Turning to “Beclin1 (recombinant GST-Beclin1; adenoviral Beclin1 constructs) (from UniProt Q14457) GST-Beclin1-WT treated with Mst1 and ATP”, the “binding against the reference” value (with Bcl-xL (recombinant); in test [1] (reference: GST-Beclin1-WT without Mst1)) was “stronger” throughout.
